From patent US20220298260A1 (MYTHIC THERAPEUTICS, published 2022)

Target: T1, FOLR1 (R&D Systems, Cat #5646-FR) (human, UniProt P15328 25-233)
T1 construct: Bought soluble protein; also called Folate Receptor 1
Assay: BLI, IgG on anti-human Fc sensor, 50 nM FOLR1

T1 sequence (P15328 25-233 limits assumed): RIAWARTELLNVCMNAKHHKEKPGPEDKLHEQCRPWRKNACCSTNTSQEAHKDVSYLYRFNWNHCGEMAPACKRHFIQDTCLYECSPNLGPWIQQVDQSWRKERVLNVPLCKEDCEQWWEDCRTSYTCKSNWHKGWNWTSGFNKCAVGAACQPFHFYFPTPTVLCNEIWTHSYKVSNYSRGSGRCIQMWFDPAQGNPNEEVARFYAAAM

| Binder | binding result |
| --- | --- |
| MYT0598 (antibody, V domains shown, IgG) VH: QVQLVQSGAEVVKPGASVKISCKHSGYTFTGYFMNWVKQSPGQSLEWIGRIHPYDGDTFYNQKFQGKATLTVDKSSNTAHMELLSLTSEDFAVYYCTRYDGSRAMDYWGQGTTVTVSS VL: DIVLTQSPLSLAVSLGQPAIISCKASQSVSFAGTSLMHWYHQKPGQQPRLLIYRASNLEAGVPDRFSGSGSKTDFTLTISPVEAEDAATYYCQQSREYPYTFGGGTKLEIK | binds |
| MYT0612 (antibody, V domains shown, IgG) VH: QVQLVQSGAEVVKPGASVKISCKASGYTFTGYFMNWVKQSPGQSLEWIGRIAPYDGDTFYNQKFQGKATLTVDKSSNTAHMELLSLTSEDFAVYYCTRYDGSRAMDYWGQGTTVTVSS VL: DIVLTQSPLSLAVSLGQPAIISCKASQSVSFAGTSLMHWYHQKPGQQPRLLIYRASNLEAGVPDRFSGSGSKTDFTLTISPVEAEDAATYYCQQSREYPYTFGGGTKLEIK | binds |
| MYT0617 (antibody, V domains shown, IgG) VH: QVQLVQSGAEVVKPGASVKISCKASGYTFTGYFMNWVKQSPGQSLEWIGRIHPYDGHTFYNQKFQGKATLTVDKSSNTAHMELLSLTSEDFAVYYCTRYDGSRAMDYWGQGTTVTVSS VL: DIVLTQSPLSLAVSLGQPAIISCKASQSVSFAGTSLMHWYHQKPGQQPRLLIYRASNLEAGVPDRFSGSGSKTDFTLTISPVEAEDAATYYCQQSREYPYTFGGGTKLEIK | binds |
| MYT0618 (antibody, V domains shown, IgG) VH: QVQLVQSGAEVVKPGASVKISCKASGYTFTGYFMNWVKQSPGQSLEWIGRIHPYDGDHFYNQKFQGKATLTVDKSSNTAHMELLSLTSEDFAVYYCTRYDGSRAMDYWGQGTTVTVSS VL: DIVLTQSPLSLAVSLGQPAIISCKASQSVSFAGTSLMHWYHQKPGQQPRLLIYRASNLEAGVPDRFSGSGSKTDFTLTISPVEAEDAATYYCQQSREYPYTFGGGTKLEIK | binds |
| MYT0615 (antibody, V domains shown, IgG) VH: QVQLVQSGAEVVKPGASVKISCKASGYTFTGYFMNWVKQSPGQSLEWIGRIHPYHGDTFYNQKFQGKATLTVDKSSNTAHMELLSLTSEDFAVYYCTRYDGSRAMDYWGQGTTVTVSS VL: DIVLTQSPLSLAVSLGQPAIISCKASQSVSFAGTSLMHWYHQKPGQQPRLLIYRASNLEAGVPDRFSGSGSKTDFTLTISPVEAEDAATYYCQQSREYPYTFGGGTKLEIK | binds |
| MYT0606 (antibody, V domains shown, IgG) VH: QVQLVQSGAEVVKPGASVKISCKASGYTFTGHFMNWVKQSPGQSLEWIGRIHPYDGDTFYNQKFQGKATLTVDKSSNTAHMELLSLTSEDFAVYYCTRYDGSRAMDYWGQGTTVTVSS VL: DIVLTQSPLSLAVSLGQPAIISCKASQSVSFAGTSLMHWYHQKPGQQPRLLIYRASNLEAGVPDRFSGSGSKTDFTLTISPVEAEDAATYYCQQSREYPYTFGGGTKLEIK | binds |
| MYT0619 (antibody, V domains shown, IgG) VH: QVQLVQSGAEVVKPGASVKISCKASGYTFTGYFMNWVKQSPGQSLEWIGRIHPYDGDTHYNQKFQGKATLTVDKSSNTAHMELLSLTSEDFAVYYCTRYDGSRAMDYWGQGTTVTVSS VL: DIVLTQSPLSLAVSLGQPAIISCKASQSVSFAGTSLMHWYHQKPGQQPRLLIYRASNLEAGVPDRFSGSGSKTDFTLTISPVEAEDAATYYCQQSREYPYTFGGGTKLEIK | binds |
| MYT0600 (antibody, V domains shown, IgG) VH: QVQLVQSGAEVVKPGASVKISCKASHYTFTGYFMNWVKQSPGQSLEWIGRIHPYDGDTFYNQKFQGKATLTVDKSSNTAHMELLSLTSEDFAVYYCTRYDGSRAMDYWGQGTTVTVSS VL: DIVLTQSPLSLAVSLGQPAIISCKASQSVSFAGTSLMHWYHQKPGQQPRLLIYRASNLEAGVPDRFSGSGSKTDFTLTISPVEAEDAATYYCQQSREYPYTFGGGTKLEIK | binds |
| MYT0620 (antibody, V domains shown, IgG) VH: QVQLVQSGAEVVKPGASVKISCKASGYTFTGYFMNWVKQSPGQSLEWIGRIHPYDGDTFHNQKFQGKATLTVDKSSNTAHMELLSLTSEDFAVYYCTRYDGSRAMDYWGQGTTVTVSS VL: DIVLTQSPLSLAVSLGQPAIISCKASQSVSFAGTSLMHWYHQKPGQQPRLLIYRASNLEAGVPDRFSGSGSKTDFTLTISPVEAEDAATYYCQQSREYPYTFGGGTKLEIK | binds |

Further lines, results first:

| binding result | Binder |
| --- | --- |
| binds | MYT0616 (antibody, V domains shown, IgG) VH: QVQLVQSGAEVVKPGASVKISCKASGYTFTGYFMNWVKQSPGQSLEWIGRIHPYDHDTFYNQKFQGKATLTVDKSSNTAHMELLSLTSEDFAVYYCTRYDGSRAMDYWGQGTTVTVSS VL: DIVLTQSPLSLAVSLGQPAIISCKASQSVSFAGTSLMHWYHQKPGQQPRLLIYRASNLEAGVPDRFSGSGSKTDFTLTISPVEAEDAATYYCQQSREYPYTFGGGTKLEIK |
| binds | MYT0610 (antibody, V domains shown, IgG) VH: QVQLVQSGAEVVKPGASVKISCKASGYTFTGYFMNWVKQSPGQSLEWIGHIHPYDGDTFYNQKFQGKATLTVDKSSNTAHMELLSLTSEDFAVYYCTRYDGSRAMDYWGQGTTVTVSS VL: DIVLTQSPLSLAVSLGQPAIISCKASQSVSFAGTSLMHWYHQKPGQQPRLLIYRASNLEAGVPDRFSGSGSKTDFTLTISPVEAEDAATYYCQQSREYPYTFGGGTKLEIK |
| binds | MYT0611 (antibody, V domains shown, IgG) VH: QVQLVQSGAEVVKPGASVKISCKASGYTFTGYFMNWVKQSPGQSLEWIGRHHPYDGDTFYNQKFQGKATLTVDKSSNTAHMELLSLTSEDFAVYYCTRYDGSRAMDYWGQGTTVTVSS VL: DIVLTQSPLSLAVSLGQPAIISCKASQSVSFAGTSLMHWYHQKPGQQPRLLIYRASNLEAGVPDRFSGSGSKTDFTLTISPVEAEDAATYYCQQSREYPYTFGGGTKLEIK |
| binds | MYT0605 (antibody, V domains shown, IgG) VH: QVQLVQSGAEVVKPGASVKISCKASGYTFTHYFMNWVKQSPGQSLEWIGRIHPYDGDTFYNQKFQGKATLTVDKSSNTAHMELLSLTSEDFAVYYCTRYDGSRAMDYWGQGTTVTVSS VL: DIVLTQSPLSLAVSLGQPAIISCKASQSVSFAGTSLMHWYHQKPGQQPRLLIYRASNLEAGVPDRFSGSGSKTDFTLTISPVEAEDAATYYCQQSREYPYTFGGGTKLEIK |
| binds | MYT0602 (antibody, V domains shown, IgG) VH: QVQLVQSGAEVVKPGASVKISCKASGYHFTGYFMNWVKQSPGQSLEWIGRIHPYDGDTFYNQKFQGKATLTVDKSSNTAHMELLSLTSEDFAVYYCTRYDGSRAMDYWGQGTTVTVSS VL: DIVLTQSPLSLAVSLGQPAIISCKASQSVSFAGTSLMHWYHQKPGQQPRLLIYRASNLEAGVPDRFSGSGSKTDFTLTISPVEAEDAATYYCQQSREYPYTFGGGTKLEIK |
| binds | MYT0599 (antibody, V domains shown, IgG) VH: QVQLVQSGAEVVKPGASVKISCKAHGYTFTGYFMNWVKQSPGQSLEWIGRIHPYDGDTFYNQKFQGKATLTVDKSSNTAHMELLSLTSEDFAVYYCTRYDGSRAMDYWGQGTTVTVSS VL: DIVLTQSPLSLAVSLGQPAIISCKASQSVSFAGTSLMHWYHQKPGQQPRLLIYRASNLEAGVPDRFSGSGSKTDFTLTISPVEAEDAATYYCQQSREYPYTFGGGTKLEIK |
| binds | MYT0601 (antibody, V domains shown, IgG) VH: QVQLVQSGAEVVKPGASVKISCKASGHTFTGYFMNWVKQSPGQSLEWIGRIHPYDGDTFYNQKFQGKATLTVDKSSNTAHMELLSLTSEDFAVYYCTRYDGSRAMDYWGQGTTVTVSS VL: DIVLTQSPLSLAVSLGQPAIISCKASQSVSFAGTSLMHWYHQKPGQQPRLLIYRASNLEAGVPDRFSGSGSKTDFTLTISPVEAEDAATYYCQQSREYPYTFGGGTKLEIK |
| binds | MYT0614 (antibody, V domains shown, IgG) VH: QVQLVQSGAEVVKPGASVKISCKASGYTFTGYFMNWVKQSPGQSLEWIGRIHPHDGDTFYNQKFQGKATLTVDKSSNTAHMELLSLTSEDFAVYYCTRYDGSRAMDYWGQGTTVTVSS VL: DIVLTQSPLSLAVSLGQPAIISCKASQSVSFAGTSLMHWYHQKPGQQPRLLIYRASNLEAGVPDRFSGSGSKTDFTLTISPVEAEDAATYYCQQSREYPYTFGGGTKLEIK |
| binds | MYT0604 (antibody, V domains shown, IgG) VH: QVQLVQSGAEVVKPGASVKISCKASGYTFHGYFMNWVKQSPGQSLEWIGRIHPYDGDTFYNQKFQGKATLTVDKSSNTAHMELLSLTSEDFAVYYCTRYDGSRAMDYWGQGTTVTVSS VL: DIVLTQSPLSLAVSLGQPAIISCKASQSVSFAGTSLMHWYHQKPGQQPRLLIYRASNLEAGVPDRFSGSGSKTDFTLTISPVEAEDAATYYCQQSREYPYTFGGGTKLEIK |
| binds | MYT0608 (antibody, V domains shown, IgG) VH: QVQLVQSGAEVVKPGASVKISCKASGYTFTGYFHNWVKQSPGQSLEWIGRIHPYDGDTFYNQKFQGKATLTVDKSSNTAHMELLSLTSEDFAVYYCTRYDGSRAMDYWGQGTTVTVSS VL: DIVLTQSPLSLAVSLGQPAIISCKASQSVSFAGTSLMHWYHQKPGQQPRLLIYRASNLEAGVPDRFSGSGSKTDFTLTISPVEAEDAATYYCQQSREYPYTFGGGTKLEIK |
| binds | MYT0607 (antibody, V domains shown, IgG) VH: QVQLVQSGAEVVKPGASVKISCKASGYTFTGYHMNWVKQSPGQSLEWIGRIHPYDGDTFYNQKFQGKATLTVDKSSNTAHMELLSLTSEDFAVYYCTRYDGSRAMDYWGQGTTVTVSS VL: DIVLTQSPLSLAVSLGQPAIISCKASQSVSFAGTSLMHWYHQKPGQQPRLLIYRASNLEAGVPDRFSGSGSKTDFTLTISPVEAEDAATYYCQQSREYPYTFGGGTKLEIK |
| binds | MYT0597 (antibody, V domains shown, IgG) VH: QVQLVQSGAEVVKPGASVKISCHASGYTFTGYFMNWVKQSPGQSLEWIGRIHPYDGDTFYNQKFQGKATLTVDKSSNTAHMELLSLTSEDFAVYYCTRYDGSRAMDYWGQGTTVTVSS VL: DIVLTQSPLSLAVSLGQPAIISCKASQSVSFAGTSLMHWYHQKPGQQPRLLIYRASNLEAGVPDRFSGSGSKTDFTLTISPVEAEDAATYYCQQSREYPYTFGGGTKLEIK |
